The values below are quoted from earlier work in PMC3359799.

For orientation: Kd means the equilibrium constant for the complex coming apart.

Series [1] deals with Exendin-4 (Heloderma suspectum) (UniProt P26349).
Series [2] has as its target GLP-1 (Homo sapiens) (UniProt P01275).
Series [3] addresses Exendin-4 (Heloderma suspectum) (UniProt P26349). The source holds these as a separate data set.
In series [4] the target is GLP-1 (Homo sapiens) (UniProt P01275). This is another data set of the same source.
Series [5] has the same target. This is another data set of the same source.
Series [6] has as its target Exendin-4 (Heloderma suspectum) (UniProt P26349). In words: surface plasmon resonance. Background: In SPR one partner is held on a chip, and binding of the other changes the refractive index at the surface.

Where two headings read alike, the source gives them in different places.

UniProt P01275, sequence (P01275 98-127): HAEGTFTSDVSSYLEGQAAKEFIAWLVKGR
UniProt P26349, sequence (P26349 48-86): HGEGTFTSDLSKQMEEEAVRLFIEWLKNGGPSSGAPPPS

For the substance GLP-1 receptor (from UniProt P43220), the results for the Kd in series [1] and in series [2] were 0.1 nM and 0.3 nM, respectively.

Take “GLP-1 receptor ECD (from UniProt P43220)”: the Kd is 13 nM in series [3], 800 nM in series [4], 1000 nM in series [5] and 900 nM in series [6].
